How the values were obtained:
[1] = target: HLA-DR2 (DRB1*0201 [sic]), purified from B-lymphoblastic cell line IWB (human); experiment: competition with fluorescent HA308-319 on purified HLA-DR2
[2] = target: HLA-DR1 (DRB*0101), purified from B-lymphoblastic cell line LG2.1 (human); experiment: competition with fluorescent HA308-319 on purified HLA-DR1

Substance	IC50 [1] [µM]	IC50 [2] [µM]
HPV16 E2 peptide 271-300	65	22
HPV16 E2 peptide 286-315	–	8
HPV16 E2 peptide 301-330	8	6
HPV16 E2 peptide 316-345	55	6
HPV16 E2 peptide 331-365	20	8

Source: US9115185
